Measured values as given in patent US20210275641A1 (SYNTHEKINE, published 2021).

B1: hIL2 mutein REH (L18R, Q22E, Q126H) (ligand)
chain: APTSSSTKKTQLQLEHLRLDLEMILNGINNYKNPKLTRMLTFKFYMPKKATELKHLQCLEEELKPLEEVLNLAQSKNFHLRPRDLISNINVIVLELKGSETTFMCEYADETATIVEFLNRWITFCHSIISTLT
B2: YEH (ligand)
cytokine: APTSSSTKKTQLQLEHLYLDLEMILNGINNYKNPKLTRMLTFKFYMPKKATELKHLQCLEEELKPLEEVLNLAQSKNFHLRPRDLISNINVIVLELKGSETTFMCEYADETATIVEFLNRWITFCHSIISTLT
B3: VEH (ligand)
cytokine: APTSSSTKKTQLQLEHLVLDLEMILNGINNYKNPKLTRMLTFKFYMPKKATELKHLQCLEEELKPLEEVLNLAQSKNFHLRPRDLISNINVIVLELKGSETTFMCEYADETATIVEFLNRWITFCHSIISTLT
B4: FEH (ligand)
cytokine: APTSSSTKKTQLQLEHLFLDLEMILNGINNYKNPKLTRMLTFKFYMPKKATELKHLQCLEEELKPLEEVLNLAQSKNFHLRPRDLISNINVIVLELKGSETTFMCEYADETATIVEFLNRWITFCHSIISTLT
B5: EEH (ligand)
cytokine: APTSSSTKKTQLQLEHLELDLEMILNGINNYKNPKLTRMLTFKFYMPKKATELKHLQCLEEELKPLEEVLNLAQSKNFHLRPRDLISNINVIVLELKGSETTFMCEYADETATIVEFLNRWITFCHSIISTLT
B6: KEH (ligand)
cytokine: APTSSSTKKTQLQLEHLKLDLEMILNGINNYKNPKLTRMLTFKFYMPKKATELKHLQCLEEELKPLEEVLNLAQSKNFHLRPRDLISNINVIVLELKGSETTFMCEYADETATIVEFLNRWITFCHSIISTLT
B7: WEH (ligand)
cytokine: APTSSSTKKTQLQLEHLWLDLEMILNGINNYKNPKLTRMLTFKFYMPKKATELKHLQCLEEELKPLEEVLNLAQSKNFHLRPRDLISNINVIVLELKGSETTFMCEYADETATIVEFLNRWITFCHSIISTLT
B8: IEH (ligand)
cytokine: APTSSSTKKTQLQLEHLILDLEMILNGINNYKNPKLTRMLTFKFYMPKKATELKHLQCLEEELKPLEEVLNLAQSKNFHLRPRDLISNINVIVLELKGSETTFMCEYADETATIVEFLNRWITFCHSIISTLT
B9: HEH (ligand)
cytokine: APTSSSTKKTQLQLEHLHLDLEMILNGINNYKNPKLTRMLTFKFYMPKKATELKHLQCLEEELKPLEEVLNLAQSKNFHLRPRDLISNINVIVLELKGSETTFMCEYADETATIVEFLNRWITFCHSIISTLT
B10: QEH (ligand)
cytokine: APTSSSTKKTQLQLEHLQLDLEMILNGINNYKNPKLTRMLTFKFYMPKKATELKHLQCLEEELKPLEEVLNLAQSKNFHLRPRDLISNINVIVLELKGSETTFMCEYADETATIVEFLNRWITFCHSIISTLT
B11: SEH (ligand)
cytokine: APTSSSTKKTQLQLEHLSLDLEMILNGINNYKNPKLTRMLTFKFYMPKKATELKHLQCLEEELKPLEEVLNLAQSKNFHLRPRDLISNINVIVLELKGSETTFMCEYADETATIVEFLNRWITFCHSIISTLT

Biological target: T1, human high affinity trimeric IL-2 receptor (CD25/CD122/CD132) (human, UniProt P01589 22-272; P14784 27-551; P31785 23-369)
T1 sequence 1: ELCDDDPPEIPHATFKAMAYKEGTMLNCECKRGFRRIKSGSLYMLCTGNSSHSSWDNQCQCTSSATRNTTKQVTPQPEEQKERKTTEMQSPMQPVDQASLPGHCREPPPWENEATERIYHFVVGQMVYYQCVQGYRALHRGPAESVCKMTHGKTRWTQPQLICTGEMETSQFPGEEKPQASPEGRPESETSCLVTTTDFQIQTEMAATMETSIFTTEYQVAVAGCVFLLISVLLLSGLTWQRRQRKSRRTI
T1 sequence 2: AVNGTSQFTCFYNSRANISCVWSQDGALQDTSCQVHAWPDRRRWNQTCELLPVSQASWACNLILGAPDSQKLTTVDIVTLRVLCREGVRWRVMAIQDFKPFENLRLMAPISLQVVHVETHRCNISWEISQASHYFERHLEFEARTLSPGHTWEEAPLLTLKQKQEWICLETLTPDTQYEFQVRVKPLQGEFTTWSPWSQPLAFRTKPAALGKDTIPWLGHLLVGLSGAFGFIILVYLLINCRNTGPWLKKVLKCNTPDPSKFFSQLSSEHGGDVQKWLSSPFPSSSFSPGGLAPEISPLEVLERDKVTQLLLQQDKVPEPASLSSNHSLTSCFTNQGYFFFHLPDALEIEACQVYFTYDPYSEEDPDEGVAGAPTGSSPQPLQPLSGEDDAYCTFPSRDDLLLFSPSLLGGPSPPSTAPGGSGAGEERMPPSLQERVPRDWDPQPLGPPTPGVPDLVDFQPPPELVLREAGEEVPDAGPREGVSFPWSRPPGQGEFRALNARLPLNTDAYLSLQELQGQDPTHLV
T1 sequence 3: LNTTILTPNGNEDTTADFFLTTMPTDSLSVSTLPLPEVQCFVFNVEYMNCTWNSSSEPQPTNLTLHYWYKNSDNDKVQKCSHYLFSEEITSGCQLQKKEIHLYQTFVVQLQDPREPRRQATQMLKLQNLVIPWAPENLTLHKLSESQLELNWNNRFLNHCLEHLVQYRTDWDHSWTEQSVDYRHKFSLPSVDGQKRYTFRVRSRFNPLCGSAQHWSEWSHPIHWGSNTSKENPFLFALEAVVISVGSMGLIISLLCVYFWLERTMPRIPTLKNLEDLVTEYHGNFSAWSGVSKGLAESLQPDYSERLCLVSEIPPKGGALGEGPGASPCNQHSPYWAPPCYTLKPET
Test: cell-based or functional assay

Row | Binder | pSTAT5 ratio YT CD25/YT, dilution factor 2, lower table | pSTAT5 ratio YT CD25/YT, dilution factor 2, upper table | pSTAT5 ratio YT CD25/YT, dilution factor 4, lower table | pSTAT5 ratio YT CD25/YT, dilution factor 4, upper table | pSTAT5 ratio YT CD25/YT, dilution factor 8, lower table | pSTAT5 ratio YT CD25/YT, dilution factor 8, upper table | pSTAT5 ratio YT CD25/YT, dilution factor 16, lower table | pSTAT5 ratio YT CD25/YT, dilution factor 16, upper table | pSTAT5 ratio YT CD25/YT, dilution factor 32, lower table | pSTAT5 ratio YT CD25/YT, dilution factor 32, upper table | pSTAT5 ratio YT CD25/YT, dilution factor 64, lower table | pSTAT5 ratio YT CD25/YT, dilution factor 64, upper table | pSTAT5 ratio YT CD25/YT, dilution factor 128, lower table | pSTAT5 ratio YT CD25/YT, dilution factor 128, upper table
1 | B1 | 0.8 | 0.9 | 0.9 | 1 | 1 | 1.1 | 1.3 | 1.3 | 1.6 | 1.8 | 2.4 | 2.9 | 3.9 | 4.7
2 | B2 | 0.8 | – | 0.9 | – | 1 | – | 1.2 | – | 1.5 | – | 2 | – | 3.4 | –
3 | B3 | – | 1.2 | – | 1.6 | – | 2.4 | – | 3.6 | – | 6.3 | – | 10.9 | – | 14.8
4 | B4 | – | 0.9 | – | 1.2 | – | 1.3 | – | 1.4 | – | 1.7 | – | 2.9 | – | 4.7
5 | B5 | – | 1.4 | – | 2.3 | – | 4.8 | – | 8.4 | – | 14.7 | – | 16.9 | – | 17
6 | B6 | – | 1.1 | – | 1 | – | 1.1 | – | 1.4 | – | 1.6 | – | 2.3 | – | 4
7 | B7 | – | 1.1 | – | 1.4 | – | 1.5 | – | 2.2 | – | 3.9 | – | 6.4 | – | 10
8 | B8 | – | 1.2 | – | 1.4 | – | 1.6 | – | 2.6 | – | 4.6 | – | 7.2 | – | 10.9
9 | B9 | 1 | – | 1.2 | – | 1.8 | – | 3.1 | – | 5.6 | – | 8.3 | – | 11.8 | –
10 | B10 | – | 1.1 | – | 1.3 | – | 1.8 | – | 3.1 | – | 5.8 | – | 8.3 | – | 11.7
11 | B11 | – | 1.2 | – | 1.5 | – | 2.5 | – | 4 | – | 7.8 | – | 11.4 | – | 15.1
